The values that follow come from patent US20170226211A1.

For the experiment, the target named is Cynomolgus/Rhesus CTLA-4 (cynomolgus/rhesus). Description: ELISA, antibody coated, Cynomolgus/Rhesus CTLA-4 titrated. On the technique in general: ELISA stands for enzyme-linked immunosorbent assay.

The substance Ipilimumab (antibody) showed an EC50 (read off the curve) of 0.2 nM.

For orientation: EC50 (read off the curve) means the concentration needed to bring the measured effect to its halfway point. Read a high EC50 (read off the curve) as a need for much substance.
